Reference: patent publication US7709240B2, “AMP deaminase originating streptomyces and utilization thereof” (Amano Enzyme Inc., priority 2004, dated 2010)

How the values were obtained:
Type in all cases: biochemical
[1] = Relation between reaction temperature and activity of purified enzyme; conditions: reaction temperature 75° C.; activity at 65° C. = 100%
Procedure: By using the decrease of OD265 at the time of reaction as an index, the enzyme activity was measured. To 1.5 ml of solution obtained by mixing 0.017M 5′ AMP-2Na and 1/15M phosphate buffer solution (pH 5.6) at the ratio of 1:2, 0.5 ml of sample solution was added so as to obtain a reaction solution, which was reacted at 37° C. for 15 minutes. Then, 2% perchloric acid solution was added so as to stop the reaction and 100 μl of the solution was taken out. Water was added to the solution so that the total amount was 5 ml. Then, OD265 was measured. The value similarly measured at reaction time of 0 minute was defined as a blank. Under the above-mentioned conditions, a case where an absorbance difference is reduced by 0.001 during 60 minutes was defined as one unit.
The relation between the reaction temperature and activity of the obtained purified enzyme was examined. […] As is apparent from the graph of FIG. 7 (a), high activity is observed in the wide range from 40° C. to 70° C. Furthermore, even in the case where the reaction temperature is 75° C., about 50% activity is found. Thus, it is shown that the enzyme acts favorably under the wide range of temperatures.

[2] = Substrate specificity
Description: It is reported that adenosine deaminase derived from Streptomyces aureofaciens has a wide range of substrate property, for example, catalytic ability of AMP (non-patent document 2). Taken this into consideration, in order to confirm whether deaminase derived from Streptomyces murinus obtained in the above-mentioned method is AMP-deaminase or adenosine-deaminase, the substrate specificity was investigated. Note here that the relative activity, when the enzyme activity with respect to 5′ AMP is defined as 100% is represented. […] In particular, the enzyme acted on 5′dAMP, ADP and ATP favorably. […] Furthermore, it was determined that the enzyme was able to be employed preferably in a reaction using 5′dAMP, ADP and ATP as a substrate.
Then, in the genus Streptomyces in the stored strains of Amano Enzyme Inc., screening of AMP deaminase producing strain was carried out. […] Furthermore, the residual activity was measured when the activity obtained when treatment was not carried out was defined as 100%. […]
In order to determine whether the deaminase derived from transformant (SAD-1) obtained as mentioned above was AMP deaminase or Adenosine-deaminase, the substrate specificity was investigated. […] Furthermore, it was determined that the enzyme can be preferably used with respect to the reaction using 5′-dAMP, ADP and ATP as a substrate.

[3] = Substrate specificity; remark: listed apart in the source

B1: AMP deaminase derived from Streptomyces murinus: thermostable AMP deaminase enzyme produced by Streptomyces murinus IFO14802; amino acid sequence SEQ ID NO: 1 (protein, listed as Streptomyces murinus)
chain: APPPRQATAAEARTDAYLRSVKDRPAALRAFFRQLPKGGDLHNHLSGAVNTDYLIELAAEDGLCIDATMTAVPSPCGPGTRPAADARTDRAFHDAIVRAWSMQDFPPDENGHDHFFDTFGKFGEVTWRHRGKLLAQVADTVVANNQSYLETMVTPASDGAKQLADQVGWDADLTALHRKLAAGGKLDKLVADARKEADDGDAEFRATEHCGTAKARPACGLTVRWISQASRGSSPVRVFTQLDLGMRLAEADSRFVAVNLVQPEDWDSSLENYSLQMRMVGYLRTVYPKAHVTLHAGELWPGLVKPEALKFHIAEAVDIAHTQRVGHGVDLVHEDNWQRTARTMAARQIAVEVPFSSNAQILGVKGAEHPFTTYRRYGVPVVLATDDPGVSRIDISHEYQYAAATYGLGYPELKDLARASLQYAFLPGASLWQGNPTAQGYHPVAACRAERPGQPVHSAACRRLLDGSARARLEWRQEAAFAAFERAHARG
With B1 the relative activity [1] was “about 50%”, the “action on adenosine as fraction of the action on 5′-AMP” value [2] was 1/10 and the “action on substrate Adenosine” value ([2]; activity with respect to 5′ AMP = 100%) was “also acted on and weak”. For the same molecule, the “action on substrate 5′-CMP” value [3] was “did not act on”.
